Laboratory results published in paper PMC6174099.

Molecular target: T1, Heat shock factor 1 (HSF1), wild-type, monomer (human), Q00613
T1 chain: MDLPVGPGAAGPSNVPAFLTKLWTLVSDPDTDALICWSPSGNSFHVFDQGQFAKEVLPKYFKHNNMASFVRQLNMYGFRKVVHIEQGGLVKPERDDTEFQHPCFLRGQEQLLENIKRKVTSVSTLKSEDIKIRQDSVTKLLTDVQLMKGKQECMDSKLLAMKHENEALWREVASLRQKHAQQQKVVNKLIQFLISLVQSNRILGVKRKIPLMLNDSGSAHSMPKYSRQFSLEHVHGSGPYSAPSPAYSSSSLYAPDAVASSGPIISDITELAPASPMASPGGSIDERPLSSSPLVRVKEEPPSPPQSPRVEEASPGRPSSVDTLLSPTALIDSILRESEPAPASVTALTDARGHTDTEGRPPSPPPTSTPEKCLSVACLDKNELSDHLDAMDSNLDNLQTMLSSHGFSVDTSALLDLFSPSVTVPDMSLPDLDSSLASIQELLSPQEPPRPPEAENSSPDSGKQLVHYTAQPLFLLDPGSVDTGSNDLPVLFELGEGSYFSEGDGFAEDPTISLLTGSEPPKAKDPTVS
Test: SEC
Settings: remark: other sources report otherwise

stoichiometry N: 3
B1: Heat shock factor 1 (HSF1), wild-type, monomer, Q00613 1-529 (natural protein)
chain: T1 chain
